Assay results from patent publication US8688427B2, “Enzyme catalysts for diels-alder reactions” (University of Washington, priority 2008, dated 2014).

What was measured:
[1] = test system: catalytic antibody mAb 7D4; details: 310K; read-out: KM-dienophile; cited from earlier work
[2] = test system: Diels-Alderase DA_20_10, variant of DA_20_00 (Loligo vulgaris diisopropylfluorophosphatase scaffold, SEQ ID NO:2) with A21T/A74I/S271A/A173C/Q149R/A272N, SEQ …; test: Kinetics of Diels-Alder reaction catalysed by optimized DA_20_10; format: biochemical; details: 298K; PBS; 20 μM protein; error = 95% confidence interval; read-out: KM-dienophile
Method: (A) Dependence of reaction velocity on diene concentration for different fixed dienophile concentrations. The diene concentration was varied from 3.0 to 0.18 mM with a fixed concentration of 100 mM (⋄), 66 mM (Δ), 44 mM (⋄), 30 mM (◯), 20 mM (◯), or 13 mM (●) dienophile (B) Dependence of reaction velocity on dienophile concentration for different fixed diene concentrations. The dienophile was varied from 100 to 13.0 mM with a fixed concentration of 3 mM (♦), 2 mM (▴), 1.3 mM (∇), 0.9 mM (Δ), 0.6 mM (⋄), 0.4 mM (□), 0.26 mM (◯), or 0.18 mM (●) […]. Reactions were carried out with 20 μM protein in PBS at 298 K.
(§1) The Diels-Alder reactions were performed in PBS, at 25° C., with 4% DMSO. The DMSO came from the diene, for which the stock solution (100 mM) was made in DMSO and always diluted such that the final reaction would contain 4% DMSO. After incubation of the desired amount of diene and dienophile in the presence or absence of the protein, time points were taken of the reaction (5 μL) and quenched in a solution of 80:20 acetonitrile:water with 0.1% formic acid and 1 mM Benzoic Acid (95 μL). This reaction was incubated for 5 minutes and then the precipitated protein filtered using a Millipore multiscreen solvinert filter plate (Product Number: MSRLN0450). 20 μL of the filtered quench solution was then injected and analyzed using a liquid chromatography-tandem mass spectroscopy (LC-MSMS) assay.
To summarize the optimization rounds, residues contacting the transition state in DA—20—00 were mutated individually to sets of residues predicted to retain or improve transition state binding and bolster the two catalytic residues. […] Three of the mutations (FIG. 6C) likely improve the packing around the transition state (A741, A21 T) or catalytic glutamine (A173C). Two of the mutations likely improve the overall electrostatic complementarity with the bound substrates and transition state: Q149R hydrogen bonds to the carboxylate on the diene and S271A makes the dienophile environment more non polar.
The kinetics of the DA—20—10 catalyzed reaction was characterized by measuring the dependence of the reaction velocity on the concentration of both diene and dienophile. The effective molarity (kcat/kuncat) of DA—20—10 is 100 M, and the rate enhancement (kcat/(kuncat*KM_diene)) in the presence of saturating dienophile and limiting diene is 1.0×10^5. At high substrate concentrations DA—20—10 proceeds for more than 30 turnovers before the enzyme loses activity. At higher enzyme concentrations more than 80% of the diene substrate is converted to product.
The errors represent the calculated 95% confidence interval. The parameter a describes the cooperativity of binding between the two substrates: a value greater than one indicates negative cooperativity, whereas a value lower then one indicates positive cooperativity. α could not be determined for DA—20—00. Kinetic parameters for catalytic antibodies 7D4 and 4D5 were taken from (10, 17).

[3] = test system: catalytic antibody mAb 4D5; details: 310K; read-out: KM-dienophile; cited from earlier work
catalytic antibody 1E9 = details: with N-ethyl maleimide as second substrate; cited from earlier work
[4] = Diels-Alder activity assay with purified protein, LC-MSMS product detection; format: biochemical; details: PBS
Method: The observed velocity for each mutant was normalized by the velocity of DA—20—00 in order to determine the effective rate enhancement conferred by each mutation. The reactions were done at 1 mM diene, and 10 mM dienophile, PBS, 298K, and 100 μM protein.
Mutations showing enhanced activity on DA—20—04 were sequenced, grown large scale, and assayed. The assay was done at 0.1 mM dieine, 3 mM dienophile, PBS, 298K, and 20 μM protein.
as §1
A total of 43 variants were assayed using the standard activity assay. The observed activities are described in Table 2. In Table 2, the Expression column provides the number of times the mutant was expressed; the Observed column reports the raw signal level out of the mass-spec for the product (the Observed column is not normalized nor background corrected); the Concentration column provides the concentration of the protein after large-scale expression. […]

[5] = Plate assay of crude cell lysate, second round of active site optimization; format: biochemical; details: Mutations Recombined; single mutations on DA_20_04; Neg_Control 0, Pos_Control 1
Method: Since it was unreasonable to prepare the 176 enzyme variants in large scale, a plate assay was developed in which colonies directly from a Kunkel mutagenesis (8) reaction could be screened. Kunkel mutagenesis reactions were transformed directly into BL21(DE3)™ (Invitrogen) in order to generate each of the desired mutants. Four colonies from each plated reaction was picked and grown at 37° C. in 0.5 mL of LB-Kanamycin overnight. […]. This culture was grown for 2-3 hours at 37° C., after which 50 μL of 10 mM IPTG was added to each well (0.5 mM Final) in order to induce expression. The cells were then grown for 24 hours at 18° C., harvested, and stored at −20° C. until ready for assaying. To assay, crude cell lysate was prepared by resuspending the cells in 500 uL of PBS and lysing through 3 freeze/thaw cycles (15 minutes at −80° C., 40 minutes at 25° C.), followed by centrifugation at 4000 rpm for 30 minutes. […] Samples from each reaction were then quenched and product detected using a liquid chromatography-tandem mass spectroscopy.
To help remove some of this noise, samples showing WT activity were discarded if at least 2 of the other colonies picked from that Kunkel reaction did show an effect on activity (either greater or less than WT). […] The relative effect of each mutation was calculated. […]

[6] = Production run and effects of knocking out the catalytic residues; format: biochemical; details: for decrease of catalytic activity on mutation of a catalytic residue of DA_20_10: relative to DA_20_10
Method: The reaction was carried out in 1 mM diene, 50 mM dienophile, 200 μM enzyme, in PBS at 298K. The proteins assayed are DA—20—10 (υ), Y121F (▴), Q195E (x), and tela scaffold (*), uncatalyzed (λ).
To determine whether the observed activity depends on the designed active site, we investigated the contributions of the designed catalytic residues in DA—20—10 to catalysis. Glutamine 195 was mutated into a glutamate (Q195E) and tyrosine 121 was mutated into a phenylalanine (Y121F). We had originally incorporated a glutamine rather than a glutamate at this position, despite the fact that the carboxylate should make a stronger hydrogen bond with the diene carbamate. This hydrogen bond should increase the energy of the diene HOMO (and thus decrease the energy gap with the dienophile LUMO), and more greatly stabilize the transition state. However, we were concerned that the substantial free energy cost of desolvating the carboxylate would considerably reduce binding affinity for the diene. […] The Y121F mutation decreases catalytic activity by 27-fold, consistent with the removal of a hydrogen bond that contributes to dienophile binding, stabilizes the dienophile LUMO, and is enhanced in the transition state.
Timepoints were taken and measured as previously described over a period of 60 hours.

C=CC(=O)N(C)C [dienophile, N,N-dimethylacrylamide]
Km [1]: 1.7 mM | Km [2]: 58.1 ± 14 mM | Km [3]: 5.9 mM

O=S1(=O)C(Cl)=C(Cl)C(Cl)=C1Cl [tetrachlorothiophene dioxide]
catalytic proficiency (catalytic antibody 1E9): 10^7 M^−1 | effective molarity (catalytic antibody 1E9): 10^3 M

B1: DA_20_00: original Diels-Alder enzyme design on diisopropylfluorophosphatase scaffold (PDB-ID 1E1A) (protein)
chain: MEIPVIEPLFTKVTEDIPGAAGPVFDKNGDFYIVAPYVEVNGKPAGEILRIDLKTGKKTVICKPEVNGYGGIPAGCQCDRDANQLFVADMRLGLLVVQTDGTFEEIAKKDSEGRRMQGCAYCAFDYEGNLWITAPAGEVAPADFTISLQEKFGSIYCFTTDGQMIQVDTAFQAPAGIAVRHMNDGRPYQLIVAEQPTKKLWSYDIKGPAKIENKKVWGHIPGTHKGGAAGMDFDEDNNLLVANWGSSHIEVFGPDGGQPKMRIRCPFEKPSALHFKPQTKTIFVTEHENNAVWKFEWQRNGKKQYCETLKFGIFGSLEHHHHHH
modifications: Enzyme catalyst for Diels-Alder reaction
activity versus background reaction (in words) ([4]; 25° C., 4% DMSO): increased activity over the background reaction

B2: DA_20_04: DA_20_00 triple mutant A21T, A74I, S271A (protein)
chain: MEIPVIEPLFTKVTEDIPGATGPVFDKNGDFYIVAPYVEVNGKPAGEILRIDLKTGKKTVICKPEVNGYGGIPIGCQCDRDANQLFVADMRLGLLVVQTDGTFEEIAKKDSEGRRMQGCAYCAFDYEGNLWITAPAGEVAPADFTISLQEKFGSIYCFTTDGQMIQVDTAFQAPAGIAVRHMNDGRPYQLIVAEQPTKKLWSYDIKGPAKIENKKVWGHIPGTHKGGAAGMDFDEDNNLLVANWGSSHIEVFGPDGGQPKMRIRCPFEKPAALHFKPQTKTIFVTEHENNAVWKFEWQRNGKKQYCETLKFGIFGSLEHHHHHH
modifications: Enzyme catalyst for Diels-Alder reaction
notes: DA_20_00 triple mutant A21T, A74I, S271A
product formed per hour ([4]; 0.1 mM diene, 3 mM dienophile, 298K, 20 μM protein): 21.9 nM of product/hour | rate enhancement over DA_20_00 (velocity normalized by velocity of DA_20_00) ([4]; 1 mM diene, 10 mM dienophile, 298K, 100 μM protein): 20.5 fold | Effect on [5]: 1

B3: Y121F: DA_20_10 with tyrosine 121 mutated into a phenylalanine (protein)
chain: MEIPVIEPLFTKVTEDIPGAAGPVFDKNGDFYIVAPYVEVNGKPAGEILRIDLKTGKKTVICKPEVNGYGGIPAGCQCDRDANQLFVADMRLGLLVVQTDGTFEEIAKKDSEGRRMQGCAFCAFDYEGNLWITAPAGEVAPADFTISLQEKFGSIYCFTTDGQMIQVDTAFQAPAGIAVRHMNDGRPYQLIVAEQPTKKLWSYDIKGPAKIENKKVWGHIPGTHKGGAAGMDFDEDNNLLVANWGSSHIEVFGPDGGQPKMRIRCPFEKPSALHFKPQTKTIFVTEHENNAVWKFEWQRNGKKQYCETLKFGIFGSLEHHHHHH
decrease of catalytic activity on mutation of a catalytic residue of DA_20_10 [6]: 27 fold

B4: Q195E: DA_20_10 with glutamine 195 mutated into a glutamate (protein)
chain: MEIPVIEPLFTKVTEDIPGAAGPVFDKNGDFYIVAPYVEVNGKPAGEILRIDLKTGKKTVICKPEVNGYGGIPAGCQCDRDANQLFVADMRLGLLVVQTDGTFEEIAKKDSEGRRMQGCAYCAFDYEGNLWITAPAGEVAPADFTISLQEKFGSIYCFTTDGQMIQVDTAFQAPAGIAVRHMNDGRPYQLIVAEEPTKKLWSYDIKGPAKIENKKVWGHIPGTHKGGAAGMDFDEDNNLLVANWGSSHIEVFGPDGGQPKMRIRCPFEKPSALHFKPQTKTIFVTEHENNAVWKFEWQRNGKKQYCETLKFGIFGSLEHHHHHH
decrease of catalytic activity on mutation of a catalytic residue of DA_20_10 [6]: 450 fold

B5: wild-type scaffold: diisopropylfluorophosphatase from Loligo vulgaris (PDB-ID 1E1A) (protein, listed as Loligo vulgaris)
chain: MEIPVIEPLFTKVTEDIPGAEGPVFDKNGDFYIVAPEVEVNGKPAGEILRIDLKTGKKTVICKPEVNGYGGIPAGCQCDRDANQLFVADMRLGLLVVQTDGTFEEIAKKDSEGRRMQGCNDCAFDYEGNLWITAPAGEVAPADYTRSMQEKFGSIYCFTTDGQMIQVDTAFQFPNGIAVRHMNDGRPYQLIVAETPTKKLWSYDIKGPAKIENKKVWGHIPGTHEGGADGMDFDEDNNLLVANWGSSHIEVFGPDGGQPKMRIRCPFEKPSNLHFKPQTKTIFVTEHENNAVWKFEWQRNGKKQYCETLKFGIF
activity (in words) [6]: did not show any measurable activity
